A short description of the series: label from the status in PepcDB records.

Take “MRKKKRLISLLLAVFIAVACLPAGIARADKASSIELKFDRNKGEVGDILIGTVRINNIKNFAGFQVNIVYDPKVLMAVDPETGKEFTSSTFPPGRTVLKNNAYGPIQIADNDPEKGILNFALAYSYIAGYKETGVAEESGIIAKIGFKILQKKSTAVKFQDTLSMPGAISGTQLFDWDGEVITGYEVIQPDVLSLGDEPYETPGTDIPISDNPAATPSSTPSVTPSPEVKPTQTPSPAENSAKVELEPVLDNATGEAKAAIDEEKLNKALDEAKKSEDDKLVELNIKKVENADAYIQQLPAKFLIKSDAEYKLRIATEQGIIEVPANMLNTADISKLVKNDSVVEFVIRKVKVDELGAELKEKIGNRPVIDISVVVDGKKVEWSNYKAKVKISIPYKPDAKELENHEHIVVLHIDDAGKAVSVPSGKYEPSLGVVTFETNHLSKYAVSYVYKTFADIGSYAWAKKQIEVLASKGVINGTSDTTFTPQADITRADFMILLVKALGLTAEVTSNFDDVSEKDYYYEYVGIAKELGITTGVGNNKFNPKAKITRQDMMVLTTNALRIAGKISSTGTRADVERFSDKDQIASYAVEGVATLVKEGIVVGSGDIINPRGNASRAELAAIIYKIYYK”: the protein production result was “not failed”.

Take “MRKLWPLALLLAACGAQDVGAGLDPLRLTATSLPPAYLGEPYSASLAAEGGVRPYSFTLDGKLPEGLSFQGGRLFGVPKEKGSFPLLLTVEDAAKNSRAQRLTLTVSDPPPPRLALVLPPAQVEGPFLLLARVEGREAVGFQMEVRLADLEPDLAGLKALSPAHLLDYDPATRLLRLDMAFAKPVKDREAFRLLLTPQKPLVPRLSPKVVFYDKEGKPLGQPLPRGKPFAELLRLAQAWGREGKALKEDLDGDGKVGEADLRLLAQDYFPKPETPSPEAPGGGEGQASGEEQARLEHHHHHH”: the protein production result is “failed”.

For “MRKNHYPLRGYISTNRSKHNLKAHLILVCKYRKKLLQGDLNNFIKSVIDEIATQSNFIIIAMESDIDHLHLMVQYIPRMSISSIISRIKQITTYRVWRDKRFIPLLQKHFWKEKTFWTDGFFVCSIGEANPETIKAYIENQG”, the protein production result is listed as “failed”.

Take “MRKPKITVIGGGTGSPVILKSLREKDVEIAAIVTVADDGGSSGELRKNMQQLTPPGDLRNVLVAMSDMPKFYEKVFQYRFSEDAGAFAGHPLGNLIIAGLSEMQGSTYNAMQLLSKFFHTTGKIYPSSDHPLTLHAVFQDGTEVAGESHIVDHRGIIDNVYVTNALNDDTPLASRRVVQTILESDMIVLGPGSLFTSILPNIVIKEIGRALLETKAEIAYVCNIMTQRGETEHFTDSDHVEVLHRHLGRPFIDTVLVNIEKVPQEYMNSNRFDEYLVQVEHDFVGLCKQVSRVISSNFLRLENGGAFHDGDLIVDELMRIIQVKK”: the protein production result is on record as “not failed”.

As to “MRKRARIIYNPTSGKELFKRVLPDALIKLEKAGYETSAYATEKIGDATFEAERALESEYDLLIAAGGDGTLNEVVNGIAEQPNRPKLGVIPMGTVNDFGRALHLPSDIMGAIDVIIDGHTTKVDIGKMNNRYFINLAAGGKLTQVSYETPSKLKSIVGPFAYYIKGFEMLPQMKAVDVRIEYDDNIFQGEALLFLLGLTNSMAGFEKLVPDAKLDDGYFTLIIVEKANLAELGHIMTLASRGEHTKHPKVIYAKAKSINISSFTDMQLNVDGEYGGKLPANFLNLEQHIEIFTPKDVFNEELLENDTITDITPDKQ”, the protein production result is given as “not failed”.

With “MRKRGIMSKRLLAVLCMASVTTSLFSFRGLEVKASPNVPYDQKESLAPLGEVYSIETLLNWTPESDPDAKYNRASIELQDRFMGDIVNENANPEAKIMNVALTNPYVDRAPSQGSDSMDAYVFSYWQYVNSYVYWGGSSRGIFALPTPDVVDNAHKNGVPVLATIGFPWGPGEGYVEQVRAFLQKDNNGNFPVADKMIEIAEYYGFDGYFFNQESYGCVKDDADRMVEMLEYIKKKAPNMVIGWYDSMTVDGNVKWQDALNDKNAAFFQNGENRTTDEFFLNYNWTPEKIETTVNTAKSLGRSPFDVYAGLDVQQNAYNTPFNDDYLLDENGKLRLSLAMYTPNSTFSMAKDVYDFYKHDQKFWVGPTGDPSKSDTEQDWTGLANYVPDRSAINDLPFVTNFNLGHGEDYYIDGSLSRDEEWNNRAMQEYLPTWRWIVESNGSKLTPDFDFKTAYNGGSSLKVEGKLEAANPNHIKLYSTDLNIENNSTELSIVYKTESAPNMKVGLCFGENYDEENFTFFDVNKNSNGEWTEVKIPLGDHVGKTISAISLKFESGQDVENFKINVGQISIEETAENNKGLKNSDVILEETMVHNSNSAEARIYWNGLESGNEDDLAFYEIYRIKPDGSRELMGATPNDAYYVQEFERYGEEMEFDIEVVPVDVNYNRGEGKRVTFNWGIPHDATQIPDKKVYENLALYKSVQTSAEGAAEPGLKAVDGKVDNNSKWCAAGAKDGWLTIDLGEPKNIQRWVVKHAEAGGEAKDMNTKDFALEVSYDGGQTYQEVDVVTGNEDAITDRNLENPIVAQHLRLRIDNSGSSPWAAIRIYEFQLYEETFTDQTTEIPMRFVNAKNNKGANDSVLFTRGKEGQTVNLYKGLNDETPFATATIDSNGEAKFEGLDFGEDGGRVYYGTVEEGKRESLRMSAAFEGENWEYSKVPERFELTPYKAPGMNGENHNYGTLKINDLEAGDIVSIFNDKDSIFPEKVSVPVAKGGDTAILDRISINPEGGVLTLEVKSEGKKARRIEVPYSGFGEIEMKIESEAPTNLRTVDVQKKSVSLAWDSPENTYGLEGYIIYKDNKKVGEVSADETEFTVGKLNRHTIYNFKVAAKYSNGEISKRDTITVRTAR”, the protein production result is on record as “failed”.

As for “MRKRIFWLLPDLASARRTMDDLLLARIENSHIHFVGRDGADMTGLHEANLFQTSDIVHAAEMGLMVGGGVGIVAGVVVAMFPIVSDSPQWGLVGVLAVLGAVFGAWAASMIGSSAPNSRLRSFEKDIEAGKLLLMVDVPRGRVEEVEALLQKAHPEASFAGLDPAVPAFP”, the protein production result is “failed”.

Turning to “MRLDKFIAQQLGVSRAIAGREIRGNRVTVDGEIVRNAAFKLLPEHDVAYDGNPLAQQHGPRYFMLNKPQGYVCSTDDPDHPTVLYFLDEPVAWKLHAAGRLDIDTTGLVLMTDDGQWSHRITSPRHHCEKTYLVTLESPVADDTAEQFAKGVQLHNEKDLTKPAVLEVITPTQVRLTISEGRYHQVKRMFAAVGNHVVELHRERIGGITLDADLAPGEYRPLTEEEIASVV”, the protein production result was “not failed”.

On to “MRLFFSLLILLSFFARATEPVQVFTDDLGRKVTVPAHPKRIVSLHDLDITIPLIELGVPPVASHGRTRPDGSHFIRSGALLTGVDFDNSSIAFIGTADIDIEAIVAAKPDLIITEPTRNTPIERLEKIAPTVSIDHLKGGAPEIYRKLAELTGTQSQLAILERRYQAQINALKATLDSQKITVSVIQANQGKINVMHSYHSLGRVLRDAGFRFPPLIESIPEGGRMDVSAERLPELDADFVFATWRGDTGGKPQDELAAMEKVMPGWCQFLTACRSGRYVLISREEAISNSFASLGLMAAQIQSQIAGRPLPEAK”, for which the protein production entry is “not failed”.

Take “MRLLACWTDVHHRHAPMTAHDLPRQAFLRGAVAILPLSLAVAPWGLLAGSMAIEANLTPAEGQGLSAIVFAGAAQLVAIGMLKGGAGFFSIIFTTLLLTSQHLLYGMSLRPVLSPLPGRWRIGLGFLLTDEFFALASQHDRRNFNRWYALGVGLTFYIAWNLFTLAGILLGRSIPGLEHLGLDFSIAATFIALVAPLVRNVPTLVCVATSLFCSVLFSHWQWSSALVLAGLAGMAAGFICNKLYREAPWSGQ”: the protein production result was “failed”.

With “MRLLAVFVSSRLSPEDPLYARWVRYGEVLAEEGFGLACGGYQGGMEALARGVKAKGGLVVGVTAPAFFPERRGPNPFVDLELPAATLPQRIGRLLDLGAGYLALPGGVGTLAELVLAWNLLYLRRGVGRPLAVDPYWLGLLKAHGEIAPEDVGLLRVVADEEDLRRFLRSL”, the protein production entry is reported as “not failed”.

Take “MRLLVAFAVIYFISISPVCAENTASTINIPTPAIESPLASKSLLLDISLIGQEKLVTVGQHGHILLSNDGKKWQQANVPVQVTLTNVFFLNEQLGWAVGHDATILHSQDGGLNWQVQQYLPLLEKPLFDIYFKNPQQGIAVGAYGQVFRTNDGGSTWQNEFHQEILLADDVEYLNELKAEDEAAYLDEITFILPHFNRLVQDGGSLFLLGETGLLAKSDDFGLTWQQFDNFYQGSFFSLARTKTGNVLVAGLRGHVFRSLNHGSQWDEVPTNTTALLNDIVFANDERIFILGNNGMLLISTDDGESFSKIPQQDGKTLIAGVWFKGQLIAVSDVGIKVVDLSQE”: the protein production result was “failed”.

In the case of “MRLNKLFILYSLFGILMASCIKDEAPNAEADITGISFEEDVLASARFNLNPSYNDNLQAYPILVKVKEGTPLNKLSPLFELTPGATISPESGSEHDFSDGKRVKYTVTSENKAWQRVYSIGVREQSVSDIPNEFHFEDIRLINGINPKYKYQEFYEEQDGLELTWASGNEGFNWAASSSATENYPTSQYDNGKNGKCAKLETRLTGSLGAMVGMPIAAGNLFIGEFDMTNALTSPLKATHFGTPFCYKPSRLKGWYKYKAGERFYENGGYTDRKDVMNIYAIFYEGESYNEAGEVTEVILDGNLPNQNYEHPSMVALALISNPHETDDWEAFDIPFDYQRYGKEIDETKLAKGKYKLSIIFASSKNGATFEGAPGSTLLVDDVELIFE”, the protein production result is “failed”.

As to “MRLNYPSKVSEEGFQVMVLSLSILKKSFNDFLSTRMLLINLGPILLSLAFFGAVFYYNGGNIVGYCQTLLPQSLNDYSHSQGFFAGVFAWVFKALVYFLIFWIVILLSLVINIFASIFYTPLVVSYLHQKYYPHVVLEEFGSILFSIKYFLKSLAFMLLFLAVLTPFYFIPFIGVFGVFFSIVPHFLFFKNTMSLDIASMIFNHQSYQNLLKQHRLKHYRFSFFCYLFSLIPFFNFFATLLQTLMLTHYFFIFKEKEC”, the protein production entry is “not failed”.

In the case of “MRLPFAITRFAAGAALAALGTSAFANCVANPPTQSNASFPASLAGKLAYHSYVSYGDGTSQLFIYDFAARTLTQVSKSAWGIQDPMNAVFSPDGKWLAFMGITNNAWNVFLWQVGSSSQPVNMTNSTGQTRNEDPKFSADGKSLFFKQSGDVMQATLSYTSTGPIFTSVVDITNTAPATENSMPFATPDGSAVYFATGTGAGMGLYKETIATHATFAFDTPAGLQTYYPIVRADGTVFYARWKDAASQADQIYTKVNPGDTPNQLSINDCNSNNSDPAPVNGTNYVFFSSTTAGGYQLYLGDVSTGQRWSLSQFGVNSDTTKAKLGSNYYAGGTTASTSGQTTRLLSQGMPASASSSYNSSLGAANAFDGDTANTRWDSIEGSAAGTQWLMVDLGTVRTINGVDLYWDAGAKTYAIQTSSDGVNWTSIYSTSNGIAYGHAVLSNLRGSGRYVRMYGTQRATQWGYSIDEMQVWGY”, the protein production result is given as “failed”.

Consider “MRLPGSGYSYTVIQSKNNYSQKSSFGISFVILSRGTKIFREDLFEFLSNFDFIREIISIEKQSNRSSLQFISESYGKLKFILLSDDLNSGEKVNLAMKESSCDFVFVLQSDMYLLNPFWIPNIFDEIVKKNVLLVGGEFFDKEEEMIPSIFLPSIDKKQKFKVILVNSEKDYEKTLITMDYCGLYSKEKFLQLGGFDARIQNEYFQRIDFGLRAIYFGEHVYIYRKLRIQYTALNSPENLTKSKSFLIFLLKNYVPIFVGNGVVFSFLRFCKICLKYKINPFLFQKEFKEIKGEITKNSLRFKGDLKSAIELWENDIID”, for which the protein production entry was “failed”.

Consider “MRLRNWPRWQRWLNRRIPPASSVELNQRRVFILPTRQGGAFGLALLVMLLAAINYQNSLAYGLTFLLLSLGVVTILHTYRNLAGLRLTALGADPVFAGERAGFRVRLESPRRARQAIAVGWPERPLEYADLAGDAAAEVLLFHPTERRGWLRPGRLRVESRFPLGLLVAWSWVDLRQQALVYPRPQAGEPLLAPGAEDAEDQGRALASAGVDDYQGLRAYQPGDSRRRLHWKAFSRGQGLLVKDFAALGGEDLWLEFERLGGDLESRLGRLCHAVLELSARQQPYGLALPGTRLQPASGEAQREACLRALALFGAAR”, for which the protein production entry is “failed”.

Take “MRLSILRARSTGSGQASPRASRTRGARSAAAGGSWVVIFLPLHCGTRSLTMPRRARNAQTASSCSLERPNEWKEPPPVSGFEVTIVDAESVIAWVKAGKVTVFDVREPEEFAAAHIEGAIPNPLSRFDASLIPTDSPVPVVLHCRSGVRCGHAADRLRASGFQGKINRMAGGIIAWQAAGGPVVSG”: the protein production entry is “failed”.

(Values after a protein production outcome set (Wang et al. 2014).)
